In publication PMC11065870, “The complete assembly of human LAT1-4F2hc complex provides insights into its regulation, function and localisation” (Nature Communications, 2024):

T1: 4F2 cell-surface antigen heavy chain (4F2hc, SLC3A2), fully glycosylated (human, UniProt P08195-1 1-630, four highly branched, sialylated N-glycans at Asn365, Asn381, Asn424 and Asn506 (9 to 16 sialic acid residues); one phosphorylation site (residue not given))
T1 construct: 4F2 cell-surface antigen heavy chain (4F2hc, SLC3A2), human, full-length cDNA in pCAG; source: HEK293F, co-transfected with LAT1, purified (anti-Flag M2 resin, Ni-NTA, SEC) in digitonin
T1 sequence (looked up): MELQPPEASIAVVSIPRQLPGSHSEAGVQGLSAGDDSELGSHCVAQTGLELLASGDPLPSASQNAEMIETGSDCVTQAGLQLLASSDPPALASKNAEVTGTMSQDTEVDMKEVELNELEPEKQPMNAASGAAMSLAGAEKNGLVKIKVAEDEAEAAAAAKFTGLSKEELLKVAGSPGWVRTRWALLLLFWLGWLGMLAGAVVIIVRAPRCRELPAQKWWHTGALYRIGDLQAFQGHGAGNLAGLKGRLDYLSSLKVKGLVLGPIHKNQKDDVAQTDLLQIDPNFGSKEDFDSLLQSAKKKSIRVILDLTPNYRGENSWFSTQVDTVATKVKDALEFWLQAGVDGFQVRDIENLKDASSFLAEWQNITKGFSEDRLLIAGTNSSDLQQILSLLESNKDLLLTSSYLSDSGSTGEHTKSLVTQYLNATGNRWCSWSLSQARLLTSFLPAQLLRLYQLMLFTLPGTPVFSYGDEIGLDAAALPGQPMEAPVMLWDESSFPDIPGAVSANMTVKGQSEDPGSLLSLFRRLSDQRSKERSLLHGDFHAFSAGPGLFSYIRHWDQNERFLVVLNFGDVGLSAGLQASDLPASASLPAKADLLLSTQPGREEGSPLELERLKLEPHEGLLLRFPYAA

T2: 4F2hc, desialylated (neuraminidase-treated) (human, UniProt P08195-1 1-630, N-glycans at Asn365, Asn381, Asn424 and Asn506 without sialic acid (neuraminidase); fucosylation and branching retained)
T2 construct: 4F2 cell-surface antigen heavy chain (4F2hc, SLC3A2), human, full-length cDNA in pCAG; also called desialylated 4F2hc; source: HEK293F, co-transfected with LAT1, purified, then neuraminidase digestion
T2 sequence (looked up): T1 sequence (looked up)

B1: LAT1-4F2hc heterodimer, wild type, fully glycosylated (complex)
chain 1: not shown
chain 2: T1 sequence (looked up)
modifications: phosphoserine at S35 (mono-phosphorylated proteoform, part of the population) | four highly branched, sialylated N-glycans at Asn365, Asn381, Asn424 and Asn506 (9 to 16 sialic acid residues); one phosphorylation site (residue not given)
notes: L-type amino acid transporter 1 (LAT1, SLC7A5), human, full-length cDNA in pCAG; 4F2 cell-surface antigen heavy chain (4F2hc, SLC3A2), human, full-length cDNA in pCAG; The two chains are joined by a disulfide bond; Two such heterodimers form the super-dimer (LAT1-4F2hc)2; also called LAT1-4F2hc complex; SLC7A5-SLC3A2; source: HEK293F, co-transfected, purified (anti-Flag M2 resin, Ni-NTA, SEC) in …
B2: L-type amino acid transporter 1 (LAT1, SLC7A5) (natural protein)
chain: not shown
modifications: phosphoserine at S35 (mono-phosphorylated proteoform, part of the population)
notes: L-type amino acid transporter 1 (LAT1, SLC7A5), human, full-length cDNA in pCAG; also called light chain; source: HEK293F, co-transfected with 4F2hc, purified (anti-Flag M2 resin, Ni-NTA, SEC) in digitonin

Columns and labels:
[1] = target: the molecule itself; test: native MS; complex at about 4 µM in 200 mM ammonium acetate pH 7.0 with 2 mM OGNG, released from OGNG micelles, Q Exactive UHMR, positive mode
[2] = target: the molecule itself; test: native MS; LAT1 alone; sample and conditions not told in the text (Supplementary Fig. 12C)
[3] = target: T1, 4F2 cell-surface antigen heavy chain …; test: native MS; complex at about 4 µM in 200 mM ammonium acetate pH 7.0 with 2 mM OGNG, released from OGNG micelles, Q Exactive UHMR, positive mode; conditions: both partners purified
[4] = target: T2, 4F2hc, desialylated …; test: as above; conditions: both partners purified

| Binder | stoichiometry N [1] | stoichiometry N [2] | binding result [3] | binding result [4] |
| --- | --- | --- | --- | --- |
| B1 | 2 |  |  |  |
| B2 |  | 2 | binds | binds |
